Assay results published in patent publication US20240277864A1 (SORRISO PHARMACEUTICALS, published 2024).

T1: Membrane-bound IL-6 receptor on TF1 cells (human, UniProt P08887 20-468)
T1 sequence (looked up): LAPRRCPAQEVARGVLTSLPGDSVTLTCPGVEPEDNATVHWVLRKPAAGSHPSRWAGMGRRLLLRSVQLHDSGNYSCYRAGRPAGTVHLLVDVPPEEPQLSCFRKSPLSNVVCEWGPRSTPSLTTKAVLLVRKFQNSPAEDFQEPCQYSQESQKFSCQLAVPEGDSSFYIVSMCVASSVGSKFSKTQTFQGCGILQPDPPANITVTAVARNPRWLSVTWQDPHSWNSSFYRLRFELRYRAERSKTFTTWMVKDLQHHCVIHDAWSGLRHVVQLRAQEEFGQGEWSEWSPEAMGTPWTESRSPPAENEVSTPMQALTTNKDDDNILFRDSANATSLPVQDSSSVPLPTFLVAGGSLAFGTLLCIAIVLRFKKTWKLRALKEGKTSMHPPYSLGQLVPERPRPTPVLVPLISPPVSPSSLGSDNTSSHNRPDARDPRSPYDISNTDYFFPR

T2: Recombinant soluble human IL-6R (human, UniProt P08887 20-365)
T2 sequence (looked up): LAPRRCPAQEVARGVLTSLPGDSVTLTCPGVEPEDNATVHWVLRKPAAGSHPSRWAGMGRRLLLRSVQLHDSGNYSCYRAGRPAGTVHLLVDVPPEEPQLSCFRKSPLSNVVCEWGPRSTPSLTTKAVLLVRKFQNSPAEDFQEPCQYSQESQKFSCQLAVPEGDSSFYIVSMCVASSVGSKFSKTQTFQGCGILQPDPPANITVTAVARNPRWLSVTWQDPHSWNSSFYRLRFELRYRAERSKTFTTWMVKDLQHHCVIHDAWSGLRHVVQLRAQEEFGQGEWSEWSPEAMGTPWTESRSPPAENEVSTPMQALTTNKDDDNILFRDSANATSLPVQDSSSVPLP


Key:
[1] = molecular target: T1, Membrane-bound IL-6 receptor on TF1 …; test: cell-based or functional assay
[2] = molecular target: T2, Recombinant soluble human IL-6R; test: cell-based or functional assay
[3] = molecular target: T2, Recombinant soluble human IL-6R; test: cell-based or functional assay; remark: listed apart in the source
[4] = molecular target: T2, Recombinant soluble human IL-6R; test: Biacore (SPR), soluble human IL-6R flowed over the plate
[5] = molecular target: T2, Recombinant soluble human IL-6R; test: gp130 ELISA: inhibition of binding of sIL-6R/IL-6 complex to coated gp130
Human TNF-alpha [6] = molecular target: T3, Human TNF-alpha (human, UniProt P01375 77-233); test: cell-based or functional assay
T3 sequence (P01375 77-233 limits assumed): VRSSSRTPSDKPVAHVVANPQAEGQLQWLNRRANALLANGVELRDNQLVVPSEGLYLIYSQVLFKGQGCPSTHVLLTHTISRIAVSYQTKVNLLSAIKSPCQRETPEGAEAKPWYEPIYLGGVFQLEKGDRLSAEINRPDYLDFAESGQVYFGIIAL

Human TNF-alpha [7] = molecular target: T3, Human TNF-alpha; test: switchSENSE, TNFa immobilised, fluorescence
Human TNF-alpha [8] = molecular target: T3, Human TNF-alpha; test: switchSENSE, ID-38F immobilised, TNF-alpha flowed, fluorescence
Human TNF-alpha [9] = molecular target: T3, Human TNF-alpha; test: competition ELISA: inhibition of TNF-alpha binding to coated TNFR-2 (Enbrel)
Description: An ELISA plate was coated overnight with 1.5 μg/ml TNFR-2 (Enbrel) in PBS overnight at 4° C. The plate was then washed and blocked in 1% BSA for >1 h at RT before being used. […] Finally, the plate was washed again and 100 μl/well of TMB were added. Colour development was stopped by adding 50 μl/well of 0.5M H₂SO₄ and OD450 nm measurements were taken using a BMG Labtek Fluostar Omega plate reader.

[10] = molecular target: T2, Recombinant soluble human IL-6R; test: Biacore (SPR), ICVD fixed to the sensor plate, soluble human IL-6R flowed; ICVD on the chip, soluble human IL-6R flowed
Source text: The ICVD was fixed to the Biacore sensor plate and soluble human IL-6R was flowed over the plate to detect binding.

| TF-1 cell assay EC50 nM (5 ng/ml IL-6) [1] [nM] | M1 cellular assay EC50 [2] [nM] | EC50, nM, M1 cell assay (% inhibition of the IL-6+IL-6R response) [3] [nM] | EC50 [5] [nM] | Binder | further results |
| --- | --- | --- | --- | --- | --- |
| 1.12 | 5.36 | 4.16 | 1.83 | Tocilizumab (antibody, V domains shown) VH: QVQLQESGPGLVRPSQTLSLTCTVSGYSITSDHAWSWVRQPPGRGLEWIGYISYSGITTYNPSLKSRVTMLRDTSKNQFSLRLSSVTAADTAVYYCARSLARTTAMDYWGQGSLVTVSS VL: DIQMTQSPSSLSASVGDRVTITCRASQDISSYLNWYQQKPGKAPKLLIYYTSRLHSGVPSRFSGSGSGTDFTFTISSLQPEDIATYYCQQGNTLPYTFGQGTKVEIKR | Kd [4]: 0.39 nM |
|  |  | 4.05 |  | ID-142V (VHH) VHH: DVQLVESGGGLVQAGGSTRLTCKASGSISNINSINVMAWYRQAPGKGRELVAIIGKGGGTNYADFVKGRFTISRDAAKNTVYLQMNSLRPEDTAVYYCYADYEDHDSPHNASWGQGTQVTVSS |  |

The remaining lines, values behind:

| Binder | TF-1 cell assay EC50 nM (5 ng/ml IL-6) [1] [nM] | M1 cellular assay EC50 [2] [nM] | EC50, nM, M1 cell assay (% inhibition of the IL-6+IL-6R response) [3] [nM] | EC50 [5] [nM] | further results |
| --- | --- | --- | --- | --- | --- |
| ID-38F (VHH, also called ID38F (S. cerevisiae-produced); anti-TNF ICVD) VHH: DVQLVESGGGLVQPGGSLKLSCAASGFDFSSHWMYWVRQAPGKELEWLSEINTNGLITHYGDSVKGRFTVSRNNAANKMYLELTRLEPEDTALYYCARNQHGLNKGQGTQVTVSS |  |  |  |  | EC50 (nM), L929 assay (neutralisation of TNF-alpha-induced cytotoxicity) (Human TNF-alpha [6]): 0.127 nM; kon (Human TNF-alpha [7]): 8.1e+06 M⁻¹ s⁻¹; Kd (Human TNF-alpha [8]): 0.0168 nM; koff (Human TNF-alpha [8]): 4.2e-05 s⁻¹; kon (Human TNF-alpha [8]): 2.5e+06 M⁻¹ s⁻¹; EC50 (Human TNF-alpha [9]): 0.383 nM |
| ID-123V (VHH, equivalent to ID-142V except N-terminal Glu (lacks the E1D mutation) and tag; not shown: C-terminal Flag, His tag) VHH: EVQLVESGGGLVQAGGSTRLTCKASGSISNINSINVMAWYRQAPGKGRELVAIIGKGGGTNYADFVKGRFTISRDAAKNTVYLQMNSLRPEDTAVYYCYADYEDHDSPHNASWGQGTQVTVSS | 4.5 | 4.2 | 2.31 | 0.498 | Kd [10]: 1.1 nM |
| 20A11 (VHH) VHH: EVQLVESGGGLVQPGGSLRLSCAASGSVFKINVMAWYRQAPGKGRELVAGIISGGSTSYADSVKGRFTISRDNAKNTLYLQMNSLRPEDTAVYYCAFITTESDYDLGRRYWGQGTLVTVSS | 0.56 |  |  | 0.22 |  |
